The text below walks through data of patent US20030124505.

This data set deals with RecA recombinase (UniProt P0A7G6). The settings on record: second round manual capture from 1:10,000 pHPRT:pUC library; automated 59%; first round 2% and 1.35%.
Sequence of RecA recombinase (P0A7G6 2-353): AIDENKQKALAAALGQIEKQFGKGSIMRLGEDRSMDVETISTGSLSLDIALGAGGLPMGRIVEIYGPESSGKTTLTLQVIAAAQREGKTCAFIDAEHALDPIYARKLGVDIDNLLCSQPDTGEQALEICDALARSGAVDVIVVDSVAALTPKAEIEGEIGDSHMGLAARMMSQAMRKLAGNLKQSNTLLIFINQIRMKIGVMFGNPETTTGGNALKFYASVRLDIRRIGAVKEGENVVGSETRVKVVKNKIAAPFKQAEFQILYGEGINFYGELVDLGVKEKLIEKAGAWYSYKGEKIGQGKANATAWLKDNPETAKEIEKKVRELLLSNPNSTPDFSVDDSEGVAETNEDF

Consider “318 bp biotinylated HPRT cssDNA probe (primers hExo3-2A and h/m300B)”, for which the activity (% pHPRT clones) was found to be 76.
